{"source": "paper PMC11417767", "target": "FAIM2 (Fas-apoptotic inhibitory molecule 2) (UniProt Q8K097)", "test": "FAIM2 immunoprecipitation, αA-crystallin immunoblot", "conditions": "reference: wild type; sites T148", "data": [{"substance": "αA-crystallin (HSPB4/CRYAA) (from UniProt P02489) T148A", "values": [{"measurement": "binding against the reference", "value": "weaker"}]}]}
